Assay results taken from the Human Domainome abundance scans (Beltran et al. 2025).
± gives the uncertainty stated by the source.

B1: Ankyrin-1, residues 1405 to 1484; numbered along this chain, P16157 (parent)
chain: MKMAVISEHLGLSWAELARELQFSVEDINRIRVENPNSLLEQSVALLNLWVIREGQNANMENLYTALQSIDRGEIVNMLE

Variants of: B1
Test: abundance fitness (aPCA) (normalised: wild type 0, dead -1); higher = more abundant; growth selection in yeast, the domain comes from the species named
Conditions: Homo sapiens

| Variant | abundance fitness |
| --- | --- |
| S43V | -0.757 ± 0.11 |
| S43D | -0.503 ± 0.15 |
| S43G | 0 ± 0.049 |
| S43H | -0.56 ± 0.14 |
| S43R | -0.89 ± 0.14 |
| N29M | -0.075 ± 0.068 |
| N29R | -0.007 ± 0.048 |
| N29L | -0.127 ± 0.059 |
| N29C | -0.184 ± 0.12 |
| S38W | -0.754 ± 0.21 |
| S38E | -0.514 ± 0.23 |
| S38V | -0.351 ± 0.13 |
| R19I | -0.489 ± 0.17 |
| R19C | -0.17 ± 0.077 |
| R19F | 0.067 ± 0.057 |
| A15T | 0 ± 0.064 |
| A15E | 0.04 ± 0.076 |
| A15F | -0.039 ± 0.058 |
| A15Y | 0.128 ± 0.17 |
| A15D | -0.209 ± 0.11 |
| A4P | -0.612 ± 0.19 |
| A4V | -0.35 ± 0.074 |
| A4K | 0.148 ± 0.18 |
| A4N | -0.035 ± 0.13 |

| Variant | abundance fitness |
| --- | --- |
| A4M | -0.434 ± 0.19 |
| I70G | -0.911 ± 0.11 |
| I70C | -0.384 ± 0.094 |
| I70F | -0.693 ± 0.2 |
| I70D | -0.881 ± 0.26 |
| I70M | -0.651 ± 0.19 |
| L10F | -0.706 ± 0.27 |
| L10R | -0.895 ± 0.16 |
| L10E | -1.11 ± 0.41 |
| L10K | -0.509 ± 0.38 |
| W14K | -0.545 ± 0.21 |
| W14C | -1.05 ± 0.28 |
| W14V | -0.67 ± 0.13 |
| N37Y | -0.322 ± 0.2 |
| N37G | -0.166 ± 0.093 |
| N37K | 0.023 ± 0.13 |
| N37S | -0.064 ± 0.09 |
| N37C | -0.314 ± 0.2 |
| E61V | -0.523 ± 0.5 |
| E61A | 0.165 ± 0.21 |
| S13P | -0.863 ± 0.39 |
| S13D | 0.155 ± 0.089 |
| S13R | -0.442 ± 0.09 |
| S13W | -0.494 ± 0.16 |

| Variant | abundance fitness |
| --- | --- |
| S13G | -0.237 ± 0.062 |
| L21G | -0.965 ± 0.17 |
| L21C | -0.727 ± 0.33 |
| L21S | -0.645 ± 0.15 |
| V44L | 0.014 ± 0.051 |
| V44P | -0.911 ± 0.25 |
| V44M | 0.142 ± 0.084 |
| V44W | -0.021 ± 0.083 |
| V44N | 0.296 ± 0.084 |
| L63V | -0.136 ± 0.042 |
| L63A | -0.79 ± 0.2 |
| L63P | -0.805 ± 0.2 |
| L63D | -0.763 ± 0.38 |
| L63I | 0.037 ± 0.2 |
| N59D | 0.245 ± 0.11 |
| E8S | -0.18 ± 0.061 |
| E8I | -0.559 ± 0.28 |
| E8M | -0.426 ± 0.13 |
| E8V | -0.518 ± 0.065 |
| E8F | -0.424 ± 0.11 |
| E8Y | -0.722 ± 0.14 |
| E80I | -0.682 ± 0.26 |
| E80S | -0.056 ± 0.099 |
| E80G | 0.126 ± 0.08 |

| Variant | abundance fitness |
| --- | --- |
| A58V | 0.124 ± 0.064 |
| A58F | -0.253 ± 0.2 |
| A58I | -0.008 ± 0.19 |
| A58T | -0.195 ± 0.14 |
| A58K | 0.046 ± 0.057 |
| A58Y | -0.065 ± 0.22 |
| A58S | -0.078 ± 0.083 |
| A45F | -0.65 ± 0.14 |
| A45D | -0.306 ± 0.08 |
| A45I | -0.45 ± 0.14 |
| A45R | -0.147 ± 0.036 |
| A45E | -0.023 ± 0.074 |
| E74L | -0.562 ± 0.11 |
| E74N | -0.478 ± 0.17 |
| E74V | -0.839 ± 0.15 |
| E74H | -0.082 ± 0.18 |
| L46C | -0.138 ± 0.2 |
| L46Y | -0.614 ± 0.39 |
| L46F | -0.204 ± 0.14 |
| L46K | -0.741 ± 0.31 |
| L46S | -0.832 ± 0.14 |
| L46W | -0.638 ± 0.096 |
| L46T | -0.143 ± 0.085 |
| L40M | -0.067 ± 0.081 |

| Variant | abundance fitness |
| --- | --- |
| L40K | 0.182 ± 0.06 |
| L40E | -0.032 ± 0.099 |
| L40F | 0.015 ± 0.067 |
| L40T | -0.081 ± 0.085 |
| E34S | -0.144 ± 0.12 |
| E34F | -0.185 ± 0.16 |
| E34K | -0.522 ± 0.41 |
| Q22I | -0.276 ± 0.15 |
| Q22D | -0.218 ± 0.11 |
| Q22F | -0.092 ± 0.15 |
| Q22T | -0.044 ± 0.072 |
| Q22G | -0.08 ± 0.05 |
| Q22C | 0.016 ± 0.078 |
| Q22W | -0.506 ± 0.088 |
| Q22L | -0.126 ± 0.052 |
| Q22Y | -0.187 ± 0.15 |
| D27H | -0.121 ± 0.17 |
| D27L | -0.429 ± 0.077 |
| D27A | -0.071 ± 0.069 |
| D27I | -0.043 ± 0.094 |
| D27F | -0.436 ± 0.2 |
| D27T | -0.236 ± 0.14 |
| D27E | -0.08 ± 0.069 |
| N48E | -0.458 ± 0.11 |

| Variant | abundance fitness |
| --- | --- |
| N48D | 0.154 ± 0.081 |
| N48L | -0.835 ± 0.091 |
| N48V | -0.474 ± 0.094 |
| N48R | -0.006 ± 0.052 |
| N48Q | -0.205 ± 0.15 |
| V5T | -0.266 ± 0.089 |
| V5G | -0.592 ± 0.078 |
| V5K | -0.279 ± 0.12 |
| V5F | 0.103 ± 0.091 |
| V5Q | -0.483 ± 0.16 |
| V5L | 0.079 ± 0.052 |
| N35P | -0.866 ± 0.23 |
| N35V | -0.171 ± 0.12 |
| N35M | -0.317 ± 0.17 |
| K2C | -0.284 ± 0.14 |
| K2A | -0.168 ± 0.062 |
| K2H | -0.271 ± 0.17 |
| I75L | -0.199 ± 0.08 |
| I75G | -0.509 ± 0.073 |
| P36I | -0.459 ± 0.21 |
| P36W | -0.219 ± 0.095 |
| P36T | -0.525 ± 0.15 |
| M60C | -0.564 ± 0.23 |
| M60P | -0.207 ± 0.18 |

| Variant | abundance fitness |
| --- | --- |
| M60W | 0.055 ± 0.18 |
| M60F | 0.671 ± 0.27 |
| Q56E | 0.055 ± 0.085 |
| Q56H | -0.213 ± 0.26 |
| Q56M | -0.061 ± 0.11 |
| Q56T | 0.158 ± 0.12 |
| Q56A | -0.113 ± 0.091 |
| I31V | -0.192 ± 0.057 |
| I31P | -0.639 ± 0.29 |
| I31Q | -0.712 ± 0.11 |
| R72Q | -0.275 ± 0.1 |
| R72M | -0.356 ± 0.13 |
| G55R | -0.394 ± 0.078 |
| G55Q | -0.339 ± 0.13 |
| L12K | -0.133 ± 0.2 |
| L12S | 0.243 ± 0.092 |
| L12I | 0.153 ± 0.32 |
| E41K | 0.117 ± 0.094 |
| E41D | 0.007 ± 0.12 |
| E41S | -0.005 ± 0.048 |
| E41I | -0.579 ± 0.48 |
| S24K | -0.147 ± 0.099 |
| S24G | -0.23 ± 0.054 |
